This is an account of results in the supplement of paper PMC5998384.

Series [1] has as its system HeLa Kyoto. Briefly: thermal stability score vs G1/S (z-score of summed log2 fold changes over temperatures); higher = more thermally stable than in G1/S.
Series [2] deals with HeLa Kyoto. Briefly: solubility in G1/S (NP-40 vs SDS abundance) (log2 ratio); higher = more soluble. The note with it: cell cycle stage: G1/S.
Series [3] relates to HeLa Kyoto. The series is described as follows: melting temperature (median over replicates), in situ; higher = more thermally stable.
Series [4] has as its system HeLa Kyoto. Briefly: solubility change mitosis vs G1/S (difference of NP-40 vs SDS log2 ratios) (log2 ratio difference); higher = more soluble in mitosis.
Where [5] appears, read: cell cycle stage: early G1 (4.5 h after nocodazole release).
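Throughout, for melting temperature (median over replicates), in situ: HeLa Kyoto cells synchronized by double thymidine or nocodazole block, proteins quantified by TMT10plex mass spectrometry, three independent biological replicates.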
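Throughout, for solubility change mitosis vs G1/S (difference of NP-40 vs SDS log2 ratios): synchronized HeLa Kyoto cells (double thymidine block for G1/S, nocodazole release for mitosis), protein amounts in NP-40 versus SDS lysates quantified by mass spectrometry, three biological replicates.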
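Throughout, for solubility in G1/S (NP-40 vs SDS abundance): HeLa Kyoto cells arrested at G1/S by double thymidine block, proteins quantified by TMT10plex mass spectrometry in mild NP-40 versus SDS extracts, three biological replicates.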
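Throughout, for thermal stability score vs G1/S (z-score of summed log2 fold changes over temperatures): synchronized HeLa Kyoto cells, proteins quantified by TMT10plex mass spectrometry, three biological replicates, mitosis taken 0.5 h after nocodazole release, G1/S directly after double thymidine block.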

Regarding “MAVAVAMAGALIGSEPGPAEELAKLEYLSLVSKVCTELDNHLGINDKDLAEFVISLAEKNTTFDTFKASLVKNGAEFTDSLISNLLRLIQTMRPPAKPSTSKDPVVKPKTEKEKLKELFPVLCQPDNPSVRTMLDEDDVKVAVDVLKELEALMPSAAGQEKQRDAEHRDRTKKKKRSRSRDRNRDRDRDRERNRDRDHKRRHRSRSRSRSRTRERNKVKSRYRSRSRSQSPPKDRKDRDKYGERNLDRWRDKHVDRPPPEEPTIGDIYNGKVTSIMQFGCFVQLEGLRKRWEGLVHISELRREGRVANVADVVSKGQRVKVKVLSFTGTKTSLSMKDVDQETGEDLNPNRRRNLVGETNEETSMRNPDRPTHLSLVSAPEVEDDSLERKRLTRISDPEKWEIKQMIAANVLSKEEFPDFDEETGILPKVDDEEDEDLEIELVEEEPPFLRGHTKQSMDMSPIKIVKNPDGSLSQAAMMQSALAKERRELKQAQREAEMDSIPMGLNKHWVDPLPDAEGRQIAANMRGIGMMPNDIPEWKKHAFGGNKASYGKKTQMSILEQRESLPIYKLKEQLVQAVHDNQILIVIGETGSGKTTQITQYLAEAGYTSRGKIGCTQPRRVAAMSVAKRVSEEFGCCLGQEVGYTIRFEDCTSPETVIKYMTDGMLLRECLIDPDLTQYAIIMLDEAHERTIHTDVLFGLLKKTVQKRQDMKLIVTSATLDAVKFSQYFYEAPIFTIPGRTYPVEILYTKEPETDYLDASLITVMQIHLTEPPGDILVFLTGQEEIDTACEILYERMKSLGPDVPELIILPVYSALPSEMQTRIFDPAPPGSRKVVIATNIAETSLTIDGIYYVVDPGFVKQKVYNSKTGIDQLVVTPISQAQAKQRAGRAGRTGPGKCYRLYTERAYRDEMLTTNVPEIQRTNLASTVLSLKAMGINDLLSFDFMDAPPMETLITAMEQLYTLGALDDEGLLTRLGRRMAEFPLEPMLCKMLIMSVHLGCSEEMLTIVSMLSVQNVFYRPKDKQALADQKKAKFHQTEGDHLTLLAVYNSWKNNKFSNPWCYENFIQARSLRRAQDIRKQMLGIMDRHKLDVVSCGKSTVRVQKAICSGFFRNAAKKDPQEGYRTLIDQQVVYIHPSSALFNRQPEWVVYHELVLTTKEYMREVTTIDPRWLVEFAPAFFKVSDPTKLSKQKKQQRLEPLYNRYEEPNAWRISRAFRRR [DHX8]”, the results for the thermal stability score in the series with HeLa Kyoto [1] (setting [5]) and in the series on HeLa Kyoto [1] (cell cycle stage: mitosis) were 1.86 and 4.58, respectively. Besides, the “solubility in G1/S (log2)” value in the series on HeLa Kyoto [2] is -0.655. The melting temperature in the series with HeLa Kyoto [3] (cell cycle stage: G1/S) was found to be 49.9 °C; with HeLa Kyoto [3] (cell cycle stage: mitosis), 50.7 °C. Further, the “solubility change mitosis (log2)” value in the series with HeLa Kyoto [4] amounted to 0.24.

For “MAAGAGTAGPASGPGVVRDPAASQPRKRPGREGGEGARRSDTMAGGGGSSDGSGRAAGRRASRSSGRARRGRHEPGLGGPAERGAGEARLEEAVNRWVLKFYFHEALRAFRGSRYGDFRQIRDIMQALLVRPLGKEHTVSRLLRVMQCLSRIEEGENLDCSFDMEAELTPLESAINVLEMIKTEFTLTEAVVESSRKLVKEAAVIICIKNKEFEKASKILKKHMSKDPTTQKLRNDLLNIIREKNLAHPVIQNFSYETFQQKMLRFLESHLDDAEPYLLTMAKKALKSESAASSTGKEDKQPAPGPVEKPPREPARQLRNPPTTIGMMTLKAAFKTLSGAQDSEAAFAKLDQKDLVLPTQALPASPALKNKRPRKDENESSAPADGEGGSELQPKNKRMTISRLVLEEDSQSTEPSAGLNSSQEAASAPPSKPTVLNQPLPGEKNPKVPKGKWNSSNGVEEKETWVEEDELFQVQAAPDEDSTTNITKKQKWTVEESEWVKAGVQKYGEGNWAAISKNYPFVNRTAVMIKDRWRTMKRLGMN [TERF2]”, the thermal stability score was determined as 1.08 with HeLa Kyoto [1] (setting [5]) and 1.27 in the series with HeLa Kyoto [1] (cell cycle stage: mitosis). The “solubility in G1/S (log2)” value in the series on HeLa Kyoto [2] was 0.0628. Further, the values for the melting temperature with HeLa Kyoto [3] (cell cycle stage: G1/S) and in the series on HeLa Kyoto [3] (cell cycle stage: mitosis) were 48.9 °C and 50.3 °C, respectively. For the same sequence, the “solubility change mitosis (log2)” value in the series on HeLa Kyoto [4] came out at 0.0937.

In the case of “MDGEEQQPPHEANVEPVVPSEASEPVPRVLSGDPQNLSDVDAFNLLLEMKLKRRRQRPNLPRTVTQLVAEDGSRVYVVGTAHFSDDSKRDVVKTIREVQPDVVVVELCQYRVSMLKMDESTLLREAQELSLEKLQQAVRQNGLMSGLMQMLLLKVSAHITEQLGMAPGGEFREAFKEASKVPFCKFHLGDRPIPVTFKRAIAALSFWQKVRLAWGLCFLSDPISKDDVERCKQKDLLEQMMAEMIGEFPDLHRTIVSERDVYLTYMLRQAARRLELPRASDAEPRKCVPSVVVGVVGMGHVPGIEKNWSTDLNIQEIMTVPPPSVSGRVSRLAVKAAFFGLLGYSLYWMGRRTASLVLSLPAAQYCLQRVTEARHK [TRABD]”, the results for the thermal stability score in the series with HeLa Kyoto [1] (setting [5]) and with HeLa Kyoto [1] (cell cycle stage: mitosis) were 0.0844 and 0.106, respectively. Moreover, the “solubility in G1/S (log2)” value in the series with HeLa Kyoto [2] worked out at 0.184. Moreover, the melting temperature amounted to 52.2 °C in the series with HeLa Kyoto [3] (cell cycle stage: G1/S) and 50.2 °C in the series on HeLa Kyoto [3] (cell cycle stage: mitosis). Also, the “solubility change mitosis (log2)” value in the series with HeLa Kyoto [4] stood at 0.0374.

Consider “MSSAPRRPAKGADSFCTPEPESLGPGTPGFPEQEEDELHRTLGVERFEEILQEAGSRGGEEPGRSYGEEDFEYHRQSSHHIHHPLSTHLPPDARRRKTPQGPGRKPRRRPGASPTGETPTIEEGEEDEDEASEAEGARALTQPSPVSTPSSVQFFLQEDDSADRKAERTSPSSPAPLPHQEATPRASKGAQAGTQVEEAEAEAVAVASGTAGGDDGGASGRPLPKAQPGHRSYNLQERRRIGSMTGAEQALLPRVPTDEIEAQTLATADLDLMKSHRFEDVPGVRRHLVRKNAKGSTQSGREGREPGPTPRARPRAPHKPHEVFVELNELLLDKNQEPQWRETARWIKFEEDVEEETERWGKPHVASLSFRSLLELRRTLAHGAVLLDLDQQTLPGVAHQVVEQMVISDQIKAEDRANVLRALLLKHSHPSDEKDFSFPRNISAGSLGSLLGHHHGQGAESDPHVTEPLMGGVPETRLEVERERELPPPAPPAGITRSKSKHELKLLEKIPENAEATVVLVGCVEFLSRPTMAFVRLREAVELDAVLEVPVPVRFLFLLLGPSSANMDYHEIGRSISTLMSDKQFHEAAYLADEREDLLTAINAFLDCSVVLPPSEVQGEELLRSVAHFQRQMLKKREEQGRLLPTGAGLEPKSAQDKALLQMVEAAGAAEDDPLRRTGRPFGGLIRDVRRRYPHYLSDFRDALDPQCLAAVIFIYFAALSPAITFGGLLGEKTQDLIGVSELIMSTALQGVVFCLLGAQPLLVIGFSGPLLVFEEAFFSFCSSNHLEYLVGRVWIGFWLVFLALLMVALEGSFLVRFVSRFTQEIFAFLISLIFIYETFYKLVKIFQEHPLHGCSASNSSEVDGGENMTWAGARPTLGPGNRSLAGQSGQGKPRGQPNTALLSLVLMAGTFFIAFFLRKFKNSRFFPGRIRRVIGDFGVPIAILIMVLVDYSIEDTYTQKLSVPSGFSVTAPEKRGWVINPLGEKSPFPVWMMVASLLPAILVFILIFMETQITTLIISKKERMLQKGSGFHLDLLLIVAMGGICALFGLPWLAAATVRSVTHANALTVMSKAVAPGDKPKIQEVKEQRVTGLLVALLVGLSIVIGDLLRQIPLAVLFGIFLYMGVTSLNGIQFYERLHLLLMPPKHHPDVTYVKKVRTLRMHLFTALQLLCLALLWAVMSTAASLAFPFILILTVPLRMVVLTRIFTDREMKCLDANEAEPVFDEREGVDEYNEMPMPV [SLC4A2]”, for which the thermal stability score in the series on HeLa Kyoto [1] (setting [5]) was 0.464; in the series on HeLa Kyoto [1] (cell cycle stage: mitosis), -0.912. Further, the “solubility in G1/S (log2)” value with HeLa Kyoto [2] was 0.054. Also, the melting temperature was 53.9 °C in the series on HeLa Kyoto [3] (cell cycle stage: G1/S) and 54.1 °C in the series on HeLa Kyoto [3] (cell cycle stage: mitosis). Also, the “solubility change mitosis (log2)” value in the series on HeLa Kyoto [4] was determined as 0.0677.
